# Data published in the supplement of paper PMC9732359.
# ± gives the uncertainty stated by the source.
# Experiment: protein stability index of a GFP-peptide fusion (yeast GPS) (PSI 1-4); higher = more stable; sorted into four equal gates, so the index is relative within each strain
# Details: san1∆
# Summary of the method: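 Tiled 17-residue peptides from yeast proteins were fused downstream of GFP on a plasmid that also expresses Cherry, and the pooled library was carried in yeast. Mid-log cultures grown in leucine-free medium were sorted into four equal gates by GFP/Cherry fluorescence ratio. Plasmids from each gate were PCR-amplified and Illumina-sequenced, and reads were assigned to strains by barcodes. Each peptide's protein stability index is the sum, over gates, of the gate's read frequency multiplied by its gate number.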
row,Sequence,protein stability index
1,LADDDEERFSELFKGYL [RPL5],2.84 ± 0.2

# Same assay, conditions: ubr1∆
row,Sequence,protein stability index
1,KLKEMQKVLNAHRQRAM [SMC4],1.57 ± 0.055
2,KLKQGQKLFVQVSNFAP [GAL11],2.84 ± 0.05
3,KLLDDNPTEFDWPTYVD [SRB8],2.99 ± 0.058
4,KLLFQELLSMNIAPRLR [RET1],1.24 ± 0.042
5,KLLGIGDIESLFEQLQT [SRP54],2.67 ± 0.064
6,KLNKKLQHLRSRCHLVT [SRP68],3.27 ± 0.077
7,KLQKYGAAVRLTGSDRV [RPN7],2.99 ± 0.14
8,KLRARLVEYGFDPSRIK [SMC2],2.01 ± 0.034
9,KLREPVARFLHFNGIRR [ITC1],2.09 ± 0.046
10,KLRRECSNPTCGAGVFL [RPS31],1.86 ± 0.038
11,KLSCIQLNCIDTQFTKL [SRB8],2.61 ± 0.045
12,KLSEIILNINNSTSKNT [SWI1],3.01 ± 0.062
13,KLSIAEERDRRRAQQGL [RPS4A],1.6 ± 0.063
14,KLSNIWMQRQLIKGDAG [SRB2],1.25 ± 0.26
15,KLTRELEKKFQDRHVIF [RPS7A],3.18 ± 0.1
16,KLYKKIAKFERSEEEVT [YIL149C/MLP2],3.3 ± 0.078
17,KLYTFLARRTDAPFNKV [RPL18A],1.89 ± 0.068
18,KMIEKIEKMSTIVQLCK [YIL149C/MLP2],2.36 ± 0.098
19,KMSDGFNGADIRNCATE [RPT4],3.3 ± 0.043
20,KMYDYEEKEESNLAATK [RPN11],2.96 ± 0.1
21,KMYSDDTLKDISTSFCF [BRN1],3.22 ± 0.067
22,KNAVVRSKFGGDFLDFQ [ARP7],3.21 ± 0.083
23,KNFDMLNSMEKDRISHE [PCI8],2.4 ± 0.043
24,KNGLYQEAFKIYQHLAS [SRP72],2.77 ± 0.091
25,KNPKFSNAFYSVLRDTL [SMC4],2.13 ± 0.11
26,KNRRRIHGELKTYKEGI [SMC1],3.18 ± 0.054
27,KNTSSMDFLNSMENTPK [GAL11],3.02 ± 0.047

row,Sequence,protein stability index
1,KNVGNKSPEQCILRFLQ [SWI3],1.84 ± 0.033
2,KNVLANSIWGSSLRKNA [ITC1],1.45 ± 0.042
3,KNWQNVGSLVVKSSMGP [RPL1A],2.29 ± 0.045
4,KPAFSFGATTNDDKKTE [YJL041W/NSP1],2.89 ± 0.045
5,KPFLKKTQEYYTQYTND [CDC53],3.01 ± 0.046
6,KPGRMPFNFTVTLFQMA [CDC53],2.05 ± 0.051
7,KPMAFSNTTTHVPEKKS [MTR3],1.62 ± 0.034
8,KPPTQKTDTKVSFRTHN [SRP21],2.7 ± 0.065
9,KPQEIKDILVKTGITKK [PRE9],3.15 ± 0.14
10,KPQRTNTLRMKHGTYDK [RPB2],2.88 ± 0.044
11,KPSSPPDVKSLVQLSTM [SIR4],3.26 ± 0.06
12,KPYKQVKQIAPAELEGL [FAS2],1.9 ± 0.053
13,KQEIMMSDLFTFDWFIK [ISW2],2.9 ± 0.047
14,KQEQEEKIKSKKINRRN [YCG1],3.22 ± 0.15
15,KQERLKENEESLTPTQS [PRP28],3.15 ± 0.074
16,KQINHQGEEEELIALNL [RPB4],3.42 ± 0.11
17,KQLQLAMHNSKAASSTR [POP1],1.74 ± 0.037
18,KQNSSSDINQNDDSSSM [YDL088C/ASM4],2.69 ± 0.058
19,KQRTKKEDKSEAIDGNG [SNF2],3.19 ± 0.072
20,KQTADWLAEKFQKETNM [PRP28],3.16 ± 0.21
21,KRADISKRRITEELSIT [SMC1],1.83 ± 0.08
22,KRDAKAAGSYYVEAQHK [RPL7A],2.91 ± 0.054
23,KRINKFLDSVHKQGSSY [POP7],2.37 ± 0.031
24,KRKLDIGKDTFVTRKSR [PRP8],3.24 ± 0.043
25,KRLIAHDWLNALDGDLI [YCG1],3.23 ± 0.081
26,KRLLYTRRFVNVTLVNG [RPS30A],1.91 ± 0.059
27,KRRKTHIHKHVKDEAFD [RET1],3.1 ± 0.1

row,Sequence,protein stability index
1,KRRVTNLEFNYTKPYPN [SMC2],2.81 ± 0.12
2,KRVHTLLTLIVREYEQP [ISW2],3.46 ± 0.18
3,KRVKSYMDKAKQYDNRI [LRP1],2.83 ± 0.042
4,KRYANHTQDIIGGMRVD [RET1],3.37 ± 0.049
5,KSAENIIKMTIPYAAKL [RET1],2.32 ± 0.09
6,KSGKFCSHCGCVYVPNF [SNM1],1.42 ± 0.062
7,KSIENPTQTKGNDAKPA [YLR335W/NUP2],2.94 ± 0.055
8,KSIINSQRPGARILARS [ITC1],2.63 ± 0.11
9,KSKFNKSNRSYSIALSN [GAL11],2.81 ± 0.064
10,KSKILRKVVFPFQLDVA [UBP6],2.44 ± 0.057
11,KSKLFEWKSEFVVPTFG [SNM1],1.32 ± 0.067
12,KSKSSLDGKFSLFHTAV [RPN2],2.77 ± 0.067
13,KSLDEQLLLLSDERAKL [LRP1],2.91 ± 0.088
14,KSLESQRYVKSVKSVKF [RPC34],1.55 ± 0.084
15,KSLVQYIELLPNADDIR [DIS3],2.62 ± 0.064
16,KSMKYVKKILPLYARYI [ECM29],1.18 ± 0.1
17,KSNGLAPEIPEDLYYLI [RPS13],2.4 ± 0.14
18,KSNGSSDDDNIGQSEEL [ISW2],3.42 ± 0.12
19,KSNRSYSIALSNVAAIF [GAL11],1.43 ± 0.064
20,KSNTIPVTSIPSTNKKL [GAL11],2.96 ± 0.057
21,KSPPQFFYNISSIHWNN [SIN4],2.11 ± 0.042
22,KSRGSDLQYLGEFSGKN [RRP6],3.31 ± 0.073
23,KSRPDRPKPVSPPCYII [SNF5],2.95 ± 0.041
24,KSSLSLRDHALSLTAFT [ITC1],2.16 ± 0.036
25,KTAKEVAGAIRAGIIIA [RPS2],3.07 ± 0.1
26,KTCAEVIGGNSLFHIVV [SMC3],3.01 ± 0.089
27,KTDEVIILGTNLYDGAE [BRR2],2.9 ± 0.043

row,Sequence,protein stability index
1,KTDFAKIINKPNELSQI [RPC82],3.12 ± 0.14
2,KTFNKIQSQVFESLYNS [BRR2],1.73 ± 0.054
3,KTGTKPAAVFTETLKHD [RPL4A],2.54 ± 0.11
4,KTKAMSLSIEENIPVAL [POP1],3.17 ± 0.092
5,KTMIKTIEKDKMKIQET [SMC2],2.04 ± 0.062
6,KTPLLKQYLSASFSLKN [RPL6A],2.27 ± 0.042
7,KTSSQTSLSSKDLSNYR [YMR153W/NUP53],2.65 ± 0.039
8,KTVDSSIQPIESNIKMT [SSN2],2.74 ± 0.052
9,KVAHTSYKRIYGEYPPT [PRE8],3.09 ± 0.049
10,KVCECVCMHCGKLLLDE [RPO21],2.96 ± 0.047
11,KVDINADSAVNRQTLMF [PRP28],3.17 ± 0.052
12,KVKHDSQPFIKFLNFRP [SSN2],2.63 ± 0.041
13,KVLGVKDMSPILGELKR [LRP1],3.12 ± 0.045
14,KVLRKFRVQSQSNYGIY [NUT1],2.3 ± 0.14
15,KVYAQLLESYKTLSLKS [RPN7],1.32 ± 0.03
16,KWDDLNEQLTLLSKKHG [RPN5],2.94 ± 0.055
17,KWDNQSASRAKNMPVIY [RGR1],3.39 ± 0.16
18,KYACLAIRKNGQIDFWY [SIN4],2.39 ± 0.045
19,KYFTELSHYIRQCFQDN [MED1],2.5 ± 0.038
20,KYISAELYAQLRENGLV [SNU114],3.07 ± 0.076
21,KYNAFIASEVLIKQVPR [RPL1A],1.66 ± 0.045
22,KYNVNISALTQTEIKDI [PRP8],2.75 ± 0.051
23,LAANYLNIKPLLDAGCK [SKP1],2.23 ± 0.09
24,LADDDEERFSELFKGYL [RPL5],3.01 ± 0.28
